In patent US20170306033A1 (Amgen, published 2017):
Changes are numbered by the printed parent chain.

T1: human PAC1 receptor (human, UniProt P41586 21-468)
T1 sequence: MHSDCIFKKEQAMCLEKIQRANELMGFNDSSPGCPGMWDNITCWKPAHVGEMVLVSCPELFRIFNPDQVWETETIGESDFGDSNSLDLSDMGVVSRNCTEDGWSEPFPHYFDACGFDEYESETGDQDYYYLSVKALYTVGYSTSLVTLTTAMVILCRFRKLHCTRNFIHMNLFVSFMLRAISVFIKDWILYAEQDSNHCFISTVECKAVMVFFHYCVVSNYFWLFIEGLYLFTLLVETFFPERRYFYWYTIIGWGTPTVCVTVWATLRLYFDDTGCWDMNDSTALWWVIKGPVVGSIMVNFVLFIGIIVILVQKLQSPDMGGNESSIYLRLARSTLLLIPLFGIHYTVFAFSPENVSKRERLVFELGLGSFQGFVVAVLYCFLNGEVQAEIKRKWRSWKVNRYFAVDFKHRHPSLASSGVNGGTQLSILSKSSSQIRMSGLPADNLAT

B1: iPS:327103 (bispecific antibody, human IgG1, kappa, lambda, N297G)
light 1: DIQLTQSPSFLSASVGDRVTITCRASQSIGRSLHWYQQKPGKAPKLLIKYASQSLSGVPSRFSGSGSGTEFTLTISSLQPEDFATYYCHQSSRLPFTFGPGTKVDIKRTVAAPSVFIFPPSDEQLKSGTASVVCLLNNFYPREAKVQWKVDNALQSGNSQESVTEQDSKDSTYSLESTLTLSKADYEKHKVYACEVTHQGLSSPVTKSFNRGEC
heavy 1: not shown
light 2: not shown
heavy 2: not shown
B2: iPS:326626 (bispecific antibody, human IgG2, kappa, lambda)
light 1: not shown
heavy 1: QVQLQQSGPGLVKPSQTLSLTCAISGDSVSSNSATWNWIRQSPSRGLEWLGRTYYRSKWSNHYAVSVKSRITINPDTSKSQFSLQLNSVTPEDTAVYYCARGTWKQLWFLDHWGQGTLVTVSSASTKGPSVFPLAPCSRSTSESTAALGCLVKDYFPEPVTVSWNSGALTSGVHTFPAVLQSSGLYSLKSVVTVPSSNFGTQTYTCNVDHKPSNTKVDKTVERKCCVECPPCPAPPVAGPSVFLFPPKPKDTLMISRTPEVTCVVVDVSHEDPEVQFNWYVDGVEVHNAKTKPREEQFNSTFRVVSVLTVVHQDWLNGKEYKCKVSNKGLPAPIEKTISKTKGQPREPQVYTLPPSREEMTKNQVSLTCLVDGFYPSDIAVEWESNGQPENNYDTTPPMLDSDGSFFLYSDLTVDKSRWQQGNVFSCSVMHEALHNHYTQKSLSLSPGK
light 2: not shown
heavy 2: not shown
B3: iPS:327106 (bispecific antibody, human IgG1, kappa, lambda, N297G)
light 1: not shown
heavy 1: not shown
light 2: not shown
heavy 2: EVQLVESGGGLVKPGGSLRLSCAASGFTFGNAWMSWVRQAPGKELEWVGRIKSKTDGGTTDYAAPVKGRFTISRDDSKNTLYLQMNSLKTEDTAVYFCTTDRTGYSISWSSYYYYYGMDVWGQGTTVTVSSASTKGPSVFPLAPSSKSTSGGTAALGCLVKDYFPEPVTVSWNSGALTSGVHTFPAVLQSSGLYSLESVVTVPSSSLGTQTYICNVNHKPSNTKVDKKVEPKSCDKTHTCPPCPAPELLGGPSVFLFPPKPKDTLMISRTPEVTCVVVDVSHEDPEVKFNWYVDGVEVHNAKTKPCEEQYGSTYRCVSVLTVLHQDWLNGKEYKCKVSNKALPAPIEKTISKAKGQPREPQVYTLPPSRKEMTKNQVSLTCLVKGFYPSDIAVEWESNGQPENNYKTTPPVLKSDGSFFLYSKLTVDKSRWQQGNVFSCSVMHEALHNHYTQKSLSLSPGK
B4: iPS:327107 (bispecific antibody, human IgG1, kappa, lambda, N297G)
light 1: B1 light 1 with P100E
heavy 1: not shown
light 2: not shown
heavy 2: B3 heavy 2
B5: iPS:328050 (bispecific antibody, human IgG1, kappa, lambda, N297G)
light 1: DIQMTQSPSSLSASVGDRITITCRASQSISRYLNWYQQKPGKAPKLLIYAASSLQSGIPSRFSGSGSGTDFTLTINSLQPEDFATYFCQQSYSPPFTFGQGTKVDIKRTVAAPSVFIFPPSDEQLKSGTASVVCLLNNFYPREAKVQWKVDNALQSGNSQESVTEQDSKDSTYSLESTLTLSKADYEKHKVYACEVTHQGLSSPVTKSFNRGEC
heavy 1: not shown
light 2: QSVLTQPPSVSAAPGQKVTISCSGSSSNIGNNYVSWYQQLPGTAPKLLIYDNNKRPSGIPDRFSGSKSGTSTTLGITGLQTGDEADYYCGTWDSRLSAVVFGGGTKLTVLGQPKANPTVTLFPPSSEELQANKATLVCLISDFYPGAVTVAWKADGSPVKAGVETTKPSKQSNNKYAAKSYLSLTPEQWKSHRSYSCQVTHEGSTVEKTVAPTECS
heavy 2: QVQLVESGGGVVQPGRSLRLSCAASGFTFSSFGMHWVRQAPGKGLEWVAVISFDGSIKYSVDSVKGRFTISRDNSKNTLFLQMNSLRAEDTAVYYCARDRLNYYDSSGYYHYKYYGMAVWGQGTTVTVSSASTKGPSVFPLAPSSKSTSGGTAALGCLVKDYFPEPVTVSWNSGALTSGVHTFPAVLQSSGLYSLESVVTVPSSSLGTQTYICNVNHKPSNTKVDKKVEPKSCDKTHTCPPCPAPELLGGPSVFLFPPKPKDTLMISRTPEVTCVVVDVSHEDPEVKFNWYVDGVEVHNAKTKPCEEQYGSTYRCVSVLTVLHQDWLNGKEYKCKVSNKALPAPIEKTISKAKGQPREPQVYTLPPSRKKMTKNQVSLTCLVKGFYPSDIAVEWESNGQPENNYKTTPPVLKSDGSFFLYSKLTVDKSRWQQGNVFSCSVMHEALHNHYTQKSLSLSPGK
B6: iPS:328051 (bispecific antibody, human IgG1, kappa, lambda, N297G)
light 1: not shown
heavy 1: not shown
light 2: B5 light 2
heavy 2: B5 heavy 2
B7: iPS:328049 (bispecific antibody, human IgG1, kappa, lambda, N297G)
light 1: not shown
heavy 1: not shown
light 2: B5 light 2 with G103K
heavy 2: B5 heavy 2 with G44E, K370E
B8: iPS:328048 (bispecific antibody, human IgG1, kappa, lambda, N297G)
light 1: not shown
heavy 1: not shown
light 2: B5 light 2
heavy 2: B5 heavy 2 with K370E
B9: iPS:327023 (bispecific antibody, human IgG1, kappa, N297G)
light 1: B5 light 1 with Q100E
heavy 1: not shown
light 2: EIVLTQSPGTLSLSPGERATLSCRASQSVSSGYLTWYQQKPGQAPRLLIYGASSRATGIPDRFSGSGSGTDFTLTISRLEPEDFAVYYCQQYGNSLSRFGKGTKLEIKRTVAAPSVFIFPPSDEQLKSGTASVVCLLNNFYPREAKVQWKVDNALQSGNSQESVTEQDSKDSTYSLKSTLTLSKADYEKHKVYACEVTHQGLSSPVTKSFNRGEC
heavy 2: not shown
B10: iPS:327017 (bispecific antibody, human IgG1, kappa, N297G)
light 1: not shown
heavy 1: not shown
light 2: B9 light 2 with K101Q
heavy 2: not shown
B11: iPS:327091 (bispecific antibody, human IgG1, kappa, N297G)
light 1: not shown
heavy 1: not shown
light 2: B9 light 2 with K101Q
heavy 2: not shown
B12: iPS:327092 (bispecific antibody, human IgG1, kappa, N297G)
light 1: not shown
heavy 1: not shown
light 2: B9 light 2 with K101Q
heavy 2: not shown
B13: iPS:327094 (bispecific antibody, human IgG1, kappa, N297G)
light 1: EIVLTQSPATLSLSPGERATLSCRASQSVGRSLHWYQQKPGQAPRLLIKYASQSLSGIPARFSGSGSGTDFTLTISSLEPEDFAVYYCHQSSRLPFTFGPGTKVDIKRTVAAPSVFIFPPSDEQLKSGTASVVCLLNNFYPREAKVQWKVDNALQSGNSQESVTEQDSKDSTYSLESTLTLSKADYEKHKVYACEVTHQGLSSPVTKSFNRGEC
heavy 1: not shown
light 2: B9 light 2 with K101Q
heavy 2: not shown
B14: iPS:327018 (bispecific antibody, human IgG1, kappa, N297G)
light 1: B1 light 1
heavy 1: not shown
light 2: B9 light 2 with K101Q
heavy 2: not shown
B15: iPS:327019 (bispecific antibody, human IgG1, kappa, N297G)
light 1: B13 light 1
heavy 1: not shown
light 2: B9 light 2 with K101Q
heavy 2: not shown
B16: iPS:327093 (bispecific antibody, human IgG1, kappa, N297G)
light 1: B1 light 1
heavy 1: not shown
light 2: B9 light 2 with K101Q
heavy 2: not shown
B17: iPS:327025 (bispecific antibody, human IgG1, kappa, N297G)
light 1: B1 light 1 with P100E
heavy 1: not shown
light 2: B9 light 2
heavy 2: not shown
B18: iPS:327024 (bispecific antibody, human IgG1, kappa, N297G)
light 1: not shown
heavy 1: not shown
light 2: B9 light 2
heavy 2: not shown
B19: iPS:327026 (bispecific antibody, human IgG1, kappa, N297G)
light 1: B13 light 1 with P100E
heavy 1: not shown
light 2: B9 light 2
heavy 2: not shown

The binders below were run against human CGRP receptor (human, UniProt Q16602 23-461; O60894 27-148) (assay: cell-based or functional assay).
Sequence of human CGRP receptor (Q16602 23-461 limits assumed, chain 1 of 2): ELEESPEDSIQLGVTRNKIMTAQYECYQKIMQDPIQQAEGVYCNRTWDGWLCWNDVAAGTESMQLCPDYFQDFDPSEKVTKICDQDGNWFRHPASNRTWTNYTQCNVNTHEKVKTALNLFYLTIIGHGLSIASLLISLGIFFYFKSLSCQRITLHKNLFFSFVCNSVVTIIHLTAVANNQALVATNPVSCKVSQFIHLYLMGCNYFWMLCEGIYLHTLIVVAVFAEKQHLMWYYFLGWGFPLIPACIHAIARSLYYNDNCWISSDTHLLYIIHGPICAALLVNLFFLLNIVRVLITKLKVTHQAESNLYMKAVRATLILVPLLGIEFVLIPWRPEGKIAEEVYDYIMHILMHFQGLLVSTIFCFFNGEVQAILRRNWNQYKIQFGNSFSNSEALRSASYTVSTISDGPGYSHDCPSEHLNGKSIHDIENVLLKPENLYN
Sequence of human CGRP receptor (O60894 27-148 limits assumed, chain 2 of 2): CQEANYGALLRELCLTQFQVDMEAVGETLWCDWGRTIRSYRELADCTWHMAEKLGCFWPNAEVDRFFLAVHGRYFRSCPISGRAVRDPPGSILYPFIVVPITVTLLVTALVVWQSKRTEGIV

| % inhibition of human CGRPR [%] | Binder |
| --- | --- |
| 82 | B1 |
| 96 | B2 |
| 71 | B3 |
| 76 | B4 |
| 80 | B5 |
| 77 | B6 |
| 92 | B7 |
| 69 | B8 |
| 74 | B9 |
| 67 | B10 |
| 65 | B11 |
| 73 | B12 |
| 73 | B13 |
| 68 | B14 |
| 65 | B15 |
| 70 | B16 |
| 76 | B17 |
| 75 | B18 |
| 81 | B19 |

What follows are binders tested against T1, human PAC1 receptor (assay: cell-based or functional assay).

| % inhibition of human PAC1 [%] | Binder |
| --- | --- |
| 21 | B1 |
| 86 | B2 |
| 6 | B3 |
| 22 | B4 |
| 11 | B5 |
| 21 | B6 |
| 13 | B7 |
| 9 | B8 |
| 32 | B9 |
| 27 | B10 |
| 67 | B11 |
| 52 | B12 |
| 91 | B13 |
| 17 | B14 |
| 79 | B15 |
| 68 | B16 |
| 21 | B17 |
| 7 | B18 |
| 78 | B19 |
